In test [1] the target is human γ-actin (γ1-actin, cytoplasmic actin, ACTG1) purified from budding yeast (human) (UniProt P63261).
Test [2] addresses human β-actin (cytoplasmic actin, ACTB) purified from budding yeast (human) (UniProt P60709).
The target of test [3] is rabbit muscle actin (RMA; α-actin) (rabbit) (UniProt P68135).
For test [4] the target is unchanged. The experiment in a line: TIRF microscopy of single filament polymerization; 1 µM total actin monomers with 10% fluorescently labeled RMA; TIRF buffer (20 mM imidazole pH 7.4, 50 mM KCl, 1 mM MgCl2, 1 mM EGTA, 0.2 mM ATP, 10 mM DTT, 40 mM glucose, 0.25% methylcellulose); monomer addition to growing filaments.

Chain of mDia1(FH1-C) (amino acids 571–1255) (O08808 571-1255): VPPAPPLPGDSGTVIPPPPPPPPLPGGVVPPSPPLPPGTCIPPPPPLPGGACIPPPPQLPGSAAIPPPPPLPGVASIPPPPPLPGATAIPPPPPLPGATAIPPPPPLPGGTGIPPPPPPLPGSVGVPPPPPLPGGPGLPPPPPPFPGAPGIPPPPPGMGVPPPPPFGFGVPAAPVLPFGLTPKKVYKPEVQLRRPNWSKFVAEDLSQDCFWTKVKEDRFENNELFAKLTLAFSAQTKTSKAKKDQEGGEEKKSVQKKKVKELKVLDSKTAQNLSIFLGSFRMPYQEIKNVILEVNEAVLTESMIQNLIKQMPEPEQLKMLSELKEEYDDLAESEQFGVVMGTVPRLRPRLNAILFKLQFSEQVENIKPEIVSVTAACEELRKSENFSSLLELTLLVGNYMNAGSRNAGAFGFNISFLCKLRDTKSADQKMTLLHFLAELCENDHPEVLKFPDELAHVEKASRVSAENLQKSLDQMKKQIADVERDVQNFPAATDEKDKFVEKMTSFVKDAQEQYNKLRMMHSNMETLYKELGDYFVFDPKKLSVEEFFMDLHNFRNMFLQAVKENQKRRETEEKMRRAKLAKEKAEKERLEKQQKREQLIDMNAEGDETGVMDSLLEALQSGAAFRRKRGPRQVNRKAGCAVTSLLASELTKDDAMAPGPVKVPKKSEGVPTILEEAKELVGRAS

“mDia1(FH1-C) (amino acids 571–1255) (from UniProt O08808 571-1255) (domain or fragment)”: the actin filament elongation rate by TIRF microscopy, 1 µM actin with 2 µM PFN1 and 10 nM mDia1(FH1-C) (subunits s^−1 µM^−1) in test [1] was 61.2; in test [2] it was 59.3; in test [3] it was 73.6.
In turn, “rabbit muscle actin (RMA; α-actin) (from UniProt P68135 1-377) (natural protein)” registered a filament elongation rate (subunits s^−1 µM^−1) in test [4] of 10.
